Publication PMC10567853, “USP1 promotes cholangiocarcinoma progression by deubiquitinating PARP1 to prevent its proteasomal degradation” (Cell Death & Disease, 2023)
Residue numbers refer to the chain shown, from its start. Values belong to the binder of their own block, whether it stands above or below them.

Biological target: T1, Myc-tagged full-length (FL) PARP1 (UniProt P09874 1-1014)
T1 construct: also called Myc-PARP1
Test: pull-down; GST, GST-USP1 or GST-USP1 C90S coupled to glutathione-Sepharose beads, incubated with purified Myc-PARP1; 50 mM Tris-HCl, 200 mM NaCl, 1 mM EDTA, 1% NP-40, 1 mM DTT, 10 mM MgCl2, pH 8.0; 4 °C, 4 hours
Settings: both partners purified

T1 sequence (P09874 whole entry): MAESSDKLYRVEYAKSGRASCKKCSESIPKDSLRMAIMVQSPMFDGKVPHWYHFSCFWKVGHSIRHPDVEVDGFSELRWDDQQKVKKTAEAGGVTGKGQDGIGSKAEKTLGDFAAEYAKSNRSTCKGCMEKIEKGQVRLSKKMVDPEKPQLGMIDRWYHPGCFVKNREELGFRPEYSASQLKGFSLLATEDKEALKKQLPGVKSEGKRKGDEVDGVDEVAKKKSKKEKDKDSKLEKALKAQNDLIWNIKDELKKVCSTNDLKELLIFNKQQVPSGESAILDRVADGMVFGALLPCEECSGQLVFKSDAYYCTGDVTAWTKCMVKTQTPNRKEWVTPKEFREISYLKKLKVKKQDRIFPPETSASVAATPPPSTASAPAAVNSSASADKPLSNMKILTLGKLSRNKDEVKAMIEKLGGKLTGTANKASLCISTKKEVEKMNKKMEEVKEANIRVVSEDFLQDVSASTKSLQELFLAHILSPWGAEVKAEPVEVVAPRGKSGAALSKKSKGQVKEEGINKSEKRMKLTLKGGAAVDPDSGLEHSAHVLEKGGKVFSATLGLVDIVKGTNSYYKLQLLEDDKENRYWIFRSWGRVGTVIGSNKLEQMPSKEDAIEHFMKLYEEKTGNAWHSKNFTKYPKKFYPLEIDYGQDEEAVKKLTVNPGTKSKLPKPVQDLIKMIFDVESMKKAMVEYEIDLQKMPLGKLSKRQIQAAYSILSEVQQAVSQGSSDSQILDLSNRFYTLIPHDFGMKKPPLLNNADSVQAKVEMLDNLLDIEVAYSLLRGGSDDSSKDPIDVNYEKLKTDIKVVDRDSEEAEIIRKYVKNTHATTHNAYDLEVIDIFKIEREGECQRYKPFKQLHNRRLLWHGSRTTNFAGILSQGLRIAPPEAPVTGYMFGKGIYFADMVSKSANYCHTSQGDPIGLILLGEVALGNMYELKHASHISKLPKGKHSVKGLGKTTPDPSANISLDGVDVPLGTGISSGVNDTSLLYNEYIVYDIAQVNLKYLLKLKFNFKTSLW

- binding result: binds
B1: GST-USP1 (enzyme, UniProt O94782 1-785, looked up)
chain: MPGVIPSESNGLSRGSPSKKNRLSLKFFQKKETKRALDFTDSQENEEKASEYRASEIDQVVPAAQSSPINCEKRENLLPFVGLNNLGNTCYLNSILQVLYFCPGFKSGVKHLFNIISRKKEALKDEANQKDKGNCKEDSLASYELICSLQSLIISVEQLQASFLLNPEKYTDELATQPRRLLNTLRELNPMYEGYLQHDAQEVLQCILGNIQETCQLLKKEEVKNVAELPTKVEEIPHPKEEMNGINSIEMDSMRHSEDFKEKLPKGNGKRKSDTEFGNMKKKVKLSKEHQSLEENQRQTRSKRKATSDTLESPPKIIPKYISENESPRPSQKKSRVKINWLKSATKQPSILSKFCSLGKITTNQGVKGQSKENECDPEEDLGKCESDNTTNGCGLESPGNTVTPVNVNEVKPINKGEEQIGFELVEKLFQGQLVLRTRCLECESLTERREDFQDISVPVQEDELSKVEESSEISPEPKTEMKTLRWAISQFASVERIVGEDKYFCENCHHYTEAERSLLFDKMPEVITIHLKCFAASGLEFDCYGGGLSKINTPLLTPLKLSLEEWSTKPTNDSYGLFAVVMHSGITISSGHYTASVKVTDLNSLELDKGNFVVDQMCEIGKPEPLNEEEARGVVENYNDEEVSIRVGGNTQPSKVLNKKNVEAIGLLGGQKSKADYELYNKASNPDKVASTAFAENRNSETSDTTGTHESDRNKESSDQTGINISGFENKISYVVQSLKEYEGKWLLFDDSEVKVTEEKDFLNSLSPSTSPTSTPYLLFYKKL
notes: Coupled to glutathione-Sepharose beads in the pull-down; also called recombinant GST-USP1; source: E. coli BL21 (DE3), purified (GST-tag purification resin)

- binding result: binds
B2: GST-USP1 C90S (enzyme, UniProt O94782 1-785, looked up)
chain: B1 chain with C90S
notes: Coupled to glutathione-Sepharose beads in the pull-down; source: E. coli BL21 (DE3), purified (GST-tag purification resin)
